From patent US20170081400A1 (CEPHALON, published 2017)

T1: human TL1A extracellular domain with N-terminal HIS and FLAG tag (human) (UniProt O95150)
T1 sequence: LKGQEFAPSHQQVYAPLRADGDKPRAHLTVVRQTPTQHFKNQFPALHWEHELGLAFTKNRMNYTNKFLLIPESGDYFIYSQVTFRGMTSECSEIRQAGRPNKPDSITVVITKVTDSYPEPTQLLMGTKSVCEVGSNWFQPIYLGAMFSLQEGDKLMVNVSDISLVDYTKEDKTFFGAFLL

T2: human TL1A extracellular domain with N-terminal HIS and FLAG tag (human, UniProt O95150 72-251)
T2 construct: whole entry named. ~70 kDa fraction purified by gel filtration
T2 sequence: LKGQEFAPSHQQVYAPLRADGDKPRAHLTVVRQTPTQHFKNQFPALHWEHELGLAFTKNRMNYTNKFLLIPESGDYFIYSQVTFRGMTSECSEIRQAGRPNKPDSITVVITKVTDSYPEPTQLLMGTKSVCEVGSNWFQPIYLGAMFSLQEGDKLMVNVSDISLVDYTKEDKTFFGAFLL

T3: human TL1A extracellular domain with N-terminal HIS and FLAG tag (human, UniProt O95150 72-251)
T3 construct: the whole entry is named; also called TNFSF15
T3 sequence: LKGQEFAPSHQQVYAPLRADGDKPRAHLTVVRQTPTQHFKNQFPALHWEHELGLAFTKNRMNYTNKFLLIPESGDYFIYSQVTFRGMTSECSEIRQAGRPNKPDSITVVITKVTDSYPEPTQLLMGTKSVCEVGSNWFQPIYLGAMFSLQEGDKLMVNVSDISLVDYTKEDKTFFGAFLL


Legend:
[1] = molecular target: T1, human TL1A extracellular domain with N-terminal HIS and FLAG tag (human); experiment: cell-based or functional assay
[2] = molecular target: T2, human TL1A extracellular domain with …; experiment: SPR run 1; purified antibody on Protein A; TL1A 10 ug/mL; timepoint 590
Text: (§1) 1.5. Antibody expression and antigen binding as determined by SPR. Using a CM5 sensor chip (GE Healthcare) Protein A (Pierce) was coupled to the chip surface using an amine coupling kit (GE Healthcare). Protein A was coupled on flow cell 1 and 2 (or alternatively 3 and 4) using a BIACORE® T200. […] The amount of supernatant or purified protein (as well as the concentration) injected during the capture stage varied between runs and is specified in the header of the Tables 3-11. At the end of injection of the supernatant or purified antibody the change in response units was measured. This value was reported as Capture Level in Tables 3-11. […] The response units were measured prior to the end of the dissociation phase. […] The sensorgrams were double referenced (flow cell 2 is subtracted from flow cell 1 and a buffer blank). As there were a large number of antibody variants to screen, these were screened across different runs (Tables 3-11). […] A summary of the conditions used in each run is below:
(§2) 2.1. […] In some experiment the antibodies were purified using Protein A chromatography (See 1.4) and purified antibodies were used in BIACORE® (GE Healthcare) experiments.

[3] = molecular target: T2, human TL1A extracellular domain with …; experiment: SPR run 1; purified antibody on Protein A; TL1A 10 ug/mL; timepoint 59
Text: as §1, §2

[4] = molecular target: T3, human TL1A extracellular domain with …; experiment: SPR Run 8, antibody on Protein A, TL1A 5 ug/mL, timepoint 590
Text: as §1, §2

[5] = molecular target: T3, human TL1A extracellular domain with …; experiment: SPR Run 8, antibody on Protein A, TL1A 5 ug/mL, timepoint 44
Text: as §1, §2

[6] = molecular target: T3, human TL1A extracellular domain with …; experiment: cell-based or functional assay

Antibody IC50, TL1A induced caspase potency assay in TF-1 cells [1] [ng/mL]	Fold improvement over 320-179, TL1A induced caspase potency assay in TF-1 cells [1] [fold]	TL1A Binding Level (Late) [2] [RU]	TL1A Binding Level (Early) [3] [RU]	TL1A Binding Level (Late) [4] [RU]	TL1A Binding Level (Early) [5] [RU]	Antibody IC50, TL1A induced caspase potency assay in TF-1 cells [6] [ng/mL]	Fold improvement over 320-179, TL1A induced caspase potency assay in TF-1 cells [6] [fold]	Binder
10	3	118	141	–	–	–	–	320-184 (antibody, human IgG1, name in Kabat numbering, V domains shown, human IgG1, lambda) VH: QVQLVQSGAEVKKPGASVKVSCKASGYTFTSYDINWVRQAPGQGLEWMGWLNPNSGNTGYAQKFQGRVTMTADRSTSTAYMELSSLRSEDTAVYYCAREVPETAAFEYWGQGTLVTVSS VL: QSVLTQPPSVSGAPGQRVTISCTSSSSDIGAGLGVHWYQQLPGTAPKLLIEGYYNRPSGVPDRFSGSKSGTSASLTITGLAPEDEGDYYCQSYDGTLSALFGGGTKLTVLG
–	–	–	–	103	108	2	25	320-586 (antibody, human IgG1, name in Kabat numbering, V domains shown, full-length human IgG1, lambda) VH: QVQLVQSGAEVKKPGASVKVSCKASGYTFTSYDINWVRQAPGQGLEWMGWLNPNSGNTGYAQKFQGRVTMTADRSTSTAYMELSSLRSEDTAVYYCAREVPETAAFEYWGQGTLVTVSS VL: QSVLTQPPSVSGAPGQRVTISCTSSSSDIGAGLGVLWYQQLPGTAPKLLIEGYYNRPSGVPDRFSGSKSGTSASLTITGLLPEDEGDYYCQSWDGTLSALFGGGTKLTVLG
–	–	–	–	124	132	2	10	320-591 (antibody, human IgG1, V domains shown, full-length human IgG1, lambda) VH: QVQLVQSGAEVKKPGASVKVSCKASGYTFTSYDINWVRQAPGQGLEWMGWLNPNSGYTGYAQKFQGRVTMTADRSTSTAYMELSSLRSEDTAVYYCAREVPETAAFEYWGQGTLVTVSS VL: QSVLTQPPSVSGAPGQRVTISCTSSSSDIGAGLGVLWYQQLPGTAPKLLIEGYYNRPSGVPDRFSGSKSGTSASLTITGLLPEDEGDYYCQSYDGTLSALFGGGTKLTVLG
–	–	–	–	129	128	3	7	320-592 (antibody, human IgG1, name in Kabat numbering, V domains shown, full-length human IgG1, lambda) VH: QVQLVQSGAEVKKPGASVKVSCKASGYTFTSYDINWVRQAPGQGLEWMGWLNPNSGYTGYAQKFQGRVTMTADRSTSTAYMELSSLRSEDTAVYYCAREVPETAAFEYWGQGTLVTVSS VL: QSVLTQPPSVSGAPGQRVTISCTSSSSDIGAALGVHWYQQLPGTAPKLLIEGYYNRPSGVPDRFSGSKSGTSASLTITGLLPEDEGDYYCQSWDGTLSALFGGGTKLTVLG
–	–	–	–	123	128	4	5	320-588 (antibody, human IgG1, name in Kabat numbering, V domains shown, full-length human IgG1, lambda) VH: QVQLVQSGAEVKKPGASVKVSCKASGYTFTSYDINWVRQAPGQGLEWMGWLNPNSGYTGYAQKFQGRVTMTADRSTSTAYMELSSLRSEDTAVYYCAREVPETAAFEYWGQGTLVTVSS VL: QSVLTQPPSVSGAPGQRVTISCTSSSSDIGAALGVHWYQQLPGTAPKLLIEGYYNRPSGVPDRFSGSKSGTSASLTITGLLPEDEGDYYCQSYDGTLSALFGGGTKLTVLG
–	–	–	–	128	129	3	20	320-595 (antibody, human IgG1, name in Kabat numbering, V domains shown, full-length human IgG1, lambda) VH: QVQLVQSGAEVKKPGASVKVSCKASGYTFTSYDINWVRQAPGQGLEWMGWLNPNSGYTGYAQKFQGRVTMTADRSTSTAYMELSSLRSEDTAVYYCAREVPETAAFEYWGQGTLVTVSS VL: QSVLTQPPSVSGAPGQRVTISCTSSSSDIGAGLGVLWYQQLPGTAPKLLIEGYYNRPSGVPDRFSGSKSGTSASLTITGLLPEDEGDYYCQSWDGTLSALFGGGTKLTVLG
–	–	–	–	109	120	20	1	320-589 (antibody, human IgG1, name in Kabat numbering, V domains shown, full-length human IgG1, lambda) VH: QVQLVQSGAEVKKPGASVKVSCKASGYTFTSYDINWVRQAPGQGLEWMGWLNPNSGYTGYAQKFQGRVTMTADRSTSTAYMELSSLRSEDTAVYYCAREVPETAAFEYWGQGTLVTVSS VL: QSVLTQPPSVSGAPGQRVTISCTSSSSDIGAGSGVHWYQQLPGTAPKLLIEGYYNRPSGVPDRFSGSKSGTSASLTITGLLPEDEGDYYCQSYDGTLSALFGGGTKLTVLG
–	–	–	–	124	126	4	15	320-593 (antibody, human IgG1, name in Kabat numbering, V domains shown, full-length human IgG1, lambda) VH: QVQLVQSGAEVKKPGASVKVSCKASGYTFTSYDINWVRQAPGQGLEWMGWLNPNSGYTGYAQKFQGRVTMTADRSTSTAYMELSSLRSEDTAVYYCAREVPETAAFEYWGQGTLVTVSS VL: QSVLTQPPSVSGAPGQRVTISCTSSSSDIGAGSGVHWYQQLPGTAPKLLIEGYYNRPSGVPDRFSGSKSGTSASLTITGLLPEDEGDYYCQSWDGTLSALFGGGTKLTVLG
–	–	–	–	132	134	5	12	320-594 (antibody, human IgG1, name in Kabat numbering, V domains shown, full-length human IgG1, lambda) VH: QVQLVQSGAEVKKPGASVKVSCKASGYTFTSYDINWVRQAPGQGLEWMGWLNPNSGYTGYAQKFQGRVTMTADRSTSTAYMELSSLRSEDTAVYYCAREVPETAAFEYWGQGTLVTVSS VL: QSVLTQPPSVSGAPGQRVTISCTSSSSDIGAGQGVHWYQQLPGTAPKLLIEGYYNRPSGVPDRFSGSKSGTSASLTITGLLPEDEGDYYCQSWDGTLSALFGGGTKLTVLG
–	–	–	–	121	130	6	3	320-590 (antibody, human IgG1, name in Kabat numbering, V domains shown, full-length human IgG1, lambda) VH: QVQLVQSGAEVKKPGASVKVSCKASGYTFTSYDINWVRQAPGQGLEWMGWLNPNSGYTGYAQKFQGRVTMTADRSTSTAYMELSSLRSEDTAVYYCAREVPETAAFEYWGQGTLVTVSS VL: QSVLTQPPSVSGAPGQRVTISCTSSSSDIGAGQGVHWYQQLPGTAPKLLIEGYYNRPSGVPDRFSGSKSGTSASLTITGLLPEDEGDYYCQSYDGTLSALFGGGTKLTVLG
–	–	–	–	103	108	3	27	320-583 (antibody, human IgG1, name in Kabat numbering, V domains shown, full-length human IgG1, lambda) VH: QVQLVQSGAEVKKPGASVKVSCKASGYTFTSYDINWVRQAPGQGLEWMGWLNPNSGNTGYAQKFQGRVTMTADRSTSTAYMELSSLRSEDTAVYYCAREVPETAAFEYWGQGTLVTVSS VL: QSVLTQPPSVSGAPGQRVTISCTSSSSDIGAALGVHWYQQLPGTAPKLLIEGYYNRPSGVPDRFSGSKSGTSASLTITGLLPEDEGDYYCQSWDGTLSALFGGGTKLTVLG
–	–	–	–	109	116	3	13	320-585 (antibody, human IgG1, name in Kabat numbering, V domains shown, full-length human IgG1, lambda) VH: QVQLVQSGAEVKKPGASVKVSCKASGYTFTSYDINWVRQAPGQGLEWMGWLNPNSGNTGYAQKFQGRVTMTADRSTSTAYMELSSLRSEDTAVYYCAREVPETAAFEYWGQGTLVTVSS VL: QSVLTQPPSVSGAPGQRVTISCTSSSSDIGAGQGVHWYQQLPGTAPKLLIEGYYNRPSGVPDRFSGSKSGTSASLTITGLLPEDEGDYYCQSWDGTLSALFGGGTKLTVLG
–	–	–	–	98	103	8	10	320-584 (antibody, human IgG1, name in Kabat numbering, V domains shown, full-length human IgG1, lambda) VH: QVQLVQSGAEVKKPGASVKVSCKASGYTFTSYDINWVRQAPGQGLEWMGWLNPNSGNTGYAQKFQGRVTMTADRSTSTAYMELSSLRSEDTAVYYCAREVPETAAFEYWGQGTLVTVSS VL: QSVLTQPPSVSGAPGQRVTISCTSSSSDIGAGSGVHWYQQLPGTAPKLLIEGYYNRPSGVPDRFSGSKSGTSASLTITGLLPEDEGDYYCQSWDGTLSALFGGGTKLTVLG
